T1: Erythropoietin P2 epitope peptide (Homo sapiens)
T1 chain: LKLYTGEACRTGDR


Experiments:
[1] = circular dichroism spectroscopy; format: physicochemical; settings: 1 mg/mL peptide, phosphate buffer 0.1 M, pH = 7.4, 25 °C, 1 cm cuvette, averages of five scans; negative peak around 200 nm
Procedure: The circular dichroism spectra were measured with Jasco J-815 CD spectrometer equipped with thermostated cell holder in a rectangular 1 cm cuvette (Jasco Inc., Easton, MD, USA). Conditions: concentration of peptides = 1 mg/mL, phosphate buffer = 0.1 M, pH = 7.4, temperature = 25 °C. Spectra are presented as averages of five scans, and corrected for buffer spectrum.

[2] = molecular target: T1, Erythropoietin P2 epitope peptide; assay: tryptophan fluorescence titration
[3] = molecular target: T1, Erythropoietin P2 epitope peptide; assay: microscale thermophoresis

Row | secondary structure by CD spectroscopy [1] | Kd [2] | Kd [3] | Molecule
1 | random coil structure | – | – | LKLYTGEACRTGDR
2 | – | 850 µM | 816 µM | DFDIWPLRTAWPLS [EPO-P2 antisense peptide]

Source: article PMC4100090, “A Simple Three-Step Method for Design and Affinity Testing of New Antisense Peptides: An Example of Erythropoietin” (International Journal of Molecular Sciences, 2014)
